Results reported in patent publication US11499162B2, “Plants having increased tolerance to herbicides” (BASF SE, priority 2016, dated 2022).
Positions count from the first letter of the chain named. Names may count otherwise.

B1: A216S: mutated TriA variant of SEQ ID NO: 2 (protein)
chain: MQTLSIQHGTLVTMDQYRRVLGDSWVHVQDGRIVALGVHAESVPPPADRVIDARGKVVLPGFINAHTHVNQILLRGGPSHGRQLYDWLFNVLYPGQKAMRPEDVAVAVRLYCAEAVRSGITTINDNADSAIYPGNIEAAMAVYGEVGVRVVYARMFFDRMDGRIQGYVDALKARSPQVELCSIMEETAVAKDRITALSDQYHGTAGGRISVWPAPSITPAVTVEGMRWAQAFARDRAVMWTLHMAESDHDERLHWMSPAEYMECYGLLDERLQVAHCVYFDRKDVRLLHRHNVKVASQVVSNAYLGSGVAPVPEMVERGMAVGIGTDDGNCNDSVNMIGDMKFMAHIHRAVHRDADVLTPEKILEMATIDGARSLGMDHEIGSIETGKRADLILLDLRHPQTTPHHHLAATIVFQAYGNEVDTVLIDGNVVMENRRLSFLPPERELAFLEEAQSRATAILQRANMVANPAWRSL
modifications: Pseudomonas
B2: E246T: mutated TriA variant of SEQ ID NO: 2 (protein)
chain: B1 chain with S216A, E246T
modifications: Pseudomonas
B3: E246Q: mutated TriA variant of SEQ ID NO: 2 (protein)
chain: B1 chain with S216A, E246Q
modifications: Pseudomonas
B4: S247A: mutated TriA variant of SEQ ID NO: 2 (protein)
chain: B1 chain with S216A, S247A
modifications: Pseudomonas
B5: A220G: mutated TriA variant of SEQ ID NO: 2 (protein)
chain: B1 chain with S216A, A220G
modifications: Pseudomonas
B6: P219GH249N: mutated TriA variant of SEQ ID NO: 2 (protein)
chain: B1 chain with S216A, P219G, H249N
modifications: Pseudomonas
B7: S247G: mutated TriA variant of SEQ ID NO: 2 (protein)
chain: B1 chain with S216A, S247G
modifications: Pseudomonas
B8: I217VP219GH249N: mutated TriA variant of SEQ ID NO: 2 (protein)
chain: B1 chain with S216A, I217V, P219G, H249N
modifications: Pseudomonas
B9: I217A: mutated TriA variant of SEQ ID NO: 2 (protein)
chain: B1 chain with S216A, I217A
modifications: Pseudomonas
B10: E246S: mutated TriA variant of SEQ ID NO: 2 (protein)
chain: B1 chain with S216A, E246S
modifications: Pseudomonas
B11: A216G: mutated TriA variant of SEQ ID NO: 2 (protein)
chain: B1 chain with S216G
modifications: Pseudomonas
B12: N70G: mutated TriA variant of SEQ ID NO: 2 (protein)
chain: B1 chain with N70G, S216A
modifications: Pseudomonas
B13: N70C: mutated TriA variant of SEQ ID NO: 2 (protein)
chain: B1 chain with N70C, S216A
modifications: Pseudomonas
B14: S247V: mutated TriA variant of SEQ ID NO: 2 (protein)
chain: B1 chain with S216A, S247V
modifications: Pseudomonas
B15: A220T: mutated TriA variant of SEQ ID NO: 2 (protein)
chain: B1 chain with S216A, A220T
modifications: Pseudomonas
B16: A220S: mutated TriA variant of SEQ ID NO: 2 (protein)
chain: B1 chain with S216A, A220S
modifications: Pseudomonas
B17: E246D: mutated TriA variant of SEQ ID NO: 2 (protein)
chain: B1 chain with S216A, E246D
modifications: Pseudomonas
B18: F157AA220G: mutated TriA variant of SEQ ID NO: 2 (protein)
chain: B1 chain with F157A, S216A, A220G
modifications: Pseudomonas
B19: I217T: mutated TriA variant of SEQ ID NO: 2 (protein)
chain: B1 chain with S216A, I217T
modifications: Pseudomonas
B20: S247N: mutated TriA variant of SEQ ID NO: 2 (protein)
chain: B1 chain with S216A, S247N
modifications: Pseudomonas
B21: I217S: mutated TriA variant of SEQ ID NO: 2 (protein)
chain: B1 chain with S216A, I217S
modifications: Pseudomonas

Format: biochemical
Conditions: pH 7.2
Method in brief: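 E. coli resting cells expressing His-tagged TriA incubated with azines, melamine or atrazine. Enzyme in 25 mM sodium phosphate pH 7.2 at 30 °C, substrate 1–10 nM. Loss of parent and formation of OH-metabolite followed by UPLC-HR-MS; % degradation relative to empty-vector cells.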

| Molecule | Degradation in % of 6-cyclopentyl-N4-(2,3,4,5,6-pentafluorophenyl)-1,3,5-triazine-2,4-diamine | Degradation in % of Melamine |
| --- | --- | --- |
| B1 | 1% | 45% |
| B2 | 3% | 0% |
| B3 | 0% | 4% |
| B4 | 0% | 1% |
| B5 | 0% | 0% |
| B6 | 0% | 2% |
| B7 | 2% | 2% |
| B8 | 0% | 8% |
| B9 | 4% | 100% |
| B10 | 1% | 0% |
| B11 | 0% | 64% |
| B12 | 0% | 0% |
| B13 | 0% | 0% |
| B14 | 2% | 3% |
| B15 | 1% | 6% |
| B16 | 3% | 0% |
| B17 | 5% | 0% |
| B18 | 0% | 0% |
| B19 | 3% | 100% |
| B20 | 2% | 0% |
| B21 | 3% | 100% |
